Source: US20210292393A1 (published 2021)

Columns and labels:
[1] = molecular target: SARS-CoV-2 full length spike protein, V367F mutant (SARS-CoV-2, UniProt P0DTC2 14-1273)
[2] = molecular target: SARS-CoV-2 full length spike protein, D614G mutant (SARS-CoV-2, UniProt P0DTC2 14-1273)
[3] = molecular target: SARS-CoV-2 full length spike protein, D614G mutant, expressed on the surface of CHO cells (SARS-CoV-2, UniProt P0DTC2 14-1273)
[4] = molecular target: SARS-CoV-2 full length spike protein, V367F mutant, expressed on the surface of CHO cells (SARS-CoV-2, UniProt P0DTC2 14-1273)
[5] = molecular target: SARS-CoV-2 full length spike protein, D614G mutant (SARS-CoV-2, UniProt P0DTC2 14-1273); remark: listed apart in the source
[6] = molecular target: SARS-CoV-2 full length spike protein, V367F mutant (SARS-CoV-2, UniProt P0DTC2 14-1273); remark: listed apart in the source

Row | Binder | median fluorescence intensity, fold over isotype control [3] | median fluorescence intensity, fold over isotype control [4] | further results
1 | antibody 261 (antibody, V domains shown) VH: QVQLVESGGGVVQPGRSLRLSCAASGFTFSSYAMHWVRQAPGKGLEWVAVISYDGSNKYYADSVKGRFTISRDNSKNTLYLQMNSLRAEDTAVYYCARDEAYYDILTGYINAPKNYYYYGMDVWGQGTTVTVSS VL: DIQMTQSPSSLSASVGDRVTITCRASQGIRNDLGWYQQKPGKAPKRLIYAASSLQSGVPSRFSGSGSGTEFTLTISSLQPEDFATYYCLQHNSYPFTFGPGTKVDIK |  |  | median fluorescence intensity, fold over isotype control [1]: 59.9 fold over isotype; median fluorescence intensity, fold over isotype control [2]: 87 fold over isotype
2 | antibody 268 (antibody, V domains shown) VH: QVQLQESGPGLVKPSQTLSLTCTVSGGSISSGSYYWSWIRQPAGKGLEWIGRIYTSGSTNYNPSLKSRVTISVDTSKNQFSLKLSSVTAADTAVYYCARELVGGLLGTIDYWGQGTLVTVSS VL: DIQLTQSPSFLSASVGDRVTITCRASQGISSYLAWYQQKPGKAPKLLIYAASTLQSGVPSRFSGSGSGTEFTLTISSLQPEDFATYYCQQLNSYPYTFGQGTKLEIK |  |  | median fluorescence intensity, fold over isotype control [1]: 8.9 fold over isotype; median fluorescence intensity, fold over isotype control [2]: 8.18 fold over isotype
3 | antibody 272 (antibody, V domains shown) VH: QVQLVQSGAEVKKPGASVKVSCKASGYTFTTYYMHWVRQAPGQGLEWMGIINPSGGSASYAQKFQGRVTMTRDTSTSTVYMELSSLRSEDTAVYYCARDHTLVNGDYEYYYGMDVWGQGTTVTVSS VL: SYELTQPPSVSVSPGQTARITCSGDALPKQYAYWYQQKPGQAPVSVIYKDSERPSGIPERISGSSSGTTVTLTISGVQAEDEADYYCQSADSSGTYLVFGGGTKLTVL |  |  | median fluorescence intensity, fold over isotype control [1]: 40.4 fold over isotype; median fluorescence intensity, fold over isotype control [2]: 79.7 fold over isotype
4 | antibody 286 (antibody, V domains shown) VH: QVHLVESGGGVVQPGKSLRLSCAGSGFIFSDFGMHWVRQSPGKGLEWVAVVSYDGSVTKYSDSFEGRFTISRDNSKNTLYLQMDSLRPDDTAIYYCAKGQGANLLHYWGKGILVTVSS VL: DVVLTQSPLSLPVTLGQPASISCRSSESLVYTDGDTYLHWFHQRPGQSPRRLIYKVSNRDSGVPDRFSGSGSGTDFTLKISRVEAEDVGVYYCMQGTHWPFTFGPGTKVDIK |  |  | median fluorescence intensity, fold over isotype control [1]: 28.2 fold over isotype; median fluorescence intensity, fold over isotype control [2]: 6.17 fold over isotype
5 | antibody 311 (antibody, V domains shown) VH: QVQLQESGPGLVKPSETLSLTCTVSGYSISSGYYWGWIRQPPGKGLEWIGSIYHSGSTYYNPSLKSRVTISVDTSKNQFSLKLSSVTAADTAVYYCAREETLGSSWYESYIDYWGQGTLVTVSS VL: SYVLTQPPSVSVAPGKTARITCGGNNIGSKSVHWYQQKPGQAPVLVIYYDSDRPSGIPERFSGSNSGNTATLTISRVEAGDEADYYCQVWDSSSDHPRVFGGGTKLTVL | 59.7 fold over isotype | 29.6 fold over isotype | 
6 | antibody 312 (antibody, V domains shown) VH: QVQLVQSGAEVKKPGASVKVSCKASGYTFTSYGISWVRQAPGQGLEWMGWISAYNGNTNYAQKLQGRVTMTTDTSTSTAYMELRSLRSDDTAVYYCARMLIAAAGTSRDYYGMDVWGQGTTVTVSS VL: not shown | 24.5 fold over isotype | 11.3 fold over isotype | 
7 | antibody 314 (antibody, V domains shown) VH: EVQLVESGGGLVKPGGSLRLSCAASGFTLSSYSMNWVRQAPGKGLEWVSCISSSSSYIYYADSVKGRFTISRDNAKNSLYLQMNSLRAEDTAVYYCASDPLDIVVVPAARDYYYYGMDVWGQGTTVTVSS VL: not shown | 30.4 fold over isotype | 19.6 fold over isotype | 
8 | antibody 318 (antibody, V domains shown) VH: QVQLVESGGGVVPPGRSLSLPCAASGFSFSAYAMHWLRQAPGKGLEWVAVISYDGTVKYVADSVRGRFTISRDNSNNTLYLQMTSLRSDDTAVYYCARDLGALAAAPTVYFVHWGQGTLVTVSS VL: SYVLTQPPSVSVAPGKTATITCAGEDIGRKSVHWYQQKPGQAPVLVIFYYSDRPSGIPDRFSGSVSGNTATLTIGRVEAGDEADYFCQVWDRTTNHVIFGGGTKVTVL | 9.92 fold over isotype | 40.3 fold over isotype | 
9 | antibody 330 (antibody, V domains shown) VH: QVQLVESGGGVVQPGRSLRLSCAASGFTFSSYAMHWVRQAPGKGLEWVAVISYDGSNKYYADSVKGRFTISRDNSKNTLYLQMNSLRAEDTAVYYCARDFQYYDFWSGYLTVSSPTSYYGMDVWGQGTTVTVSS VL: NFMLTQPHSVSESPGKTVTISCTGSSGSIASNYVQWYQQRPGSAPTTVIYEDNQRPSGVPDRFSGSIDSSSNSASLTISGLKTEDEADYYCQSYDSSNVVFGGGTKLTVL | 56.5 fold over isotype | 22.4 fold over isotype | 
10 | antibody 338 (antibody, V domains shown) VH: QVQLQESGPGLVKPSETLSLTCAVSGYSISSDYYWGWIRQPPGKGLEWIGSIYHSGSTYYNPSLKSRVTISIDTSKNQFSLKLSSVTAADTAVYYCARDPGNYDILTGIFDYWGQGTLVTVSS VL: QSALTQPASVSGSPGQSITISCTGTSSDVGVYNYVSWYQQHPGKAPKLMIYDVTNRPSGVSNRFSGSKSGNTASLTISGLQAEDEADYYCSSYTSSSTLAVYVFGTGTKVTVL | 7.81 fold over isotype | 33.2 fold over isotype | 
11 | antibody 346 (antibody, V domains shown) VH: EVQLVQSGAEVKKPGESLKISCKGSGYSFTSYWIGWVRQMPGKGLEWMGIIYPGDSDTRYSPSFQGQVTISADKSISTAYLQWSSLKASDTAMYYCARHGPQDGYSSSWYLDYWGQGTLVTVSS VL: not shown | 8.57 fold over isotype | 7.05 fold over isotype | 
12 | antibody 355 (antibody, V domains shown) VH: QVHLVESGGGVVQPGRSLRLSCAASGFTFSSFPMHWVRQAPGKGLEWVAVISYDGGDEHYTDSVEGRFTISRDNSLNTLYLQMSSLRLEDTAVYYCARDRYDSSGYYYVSDYWGQGTLITVSS VL: SYELTQPPSVSVSPGQTARISCSGDALPKQYAYWYQQKPGQAPVLVIYKDSERPSGIPERFSGSSSGTTVTLTISGVQAEDEADYYCQSADSRGTDPWVFGGGTKLTVL | 20.3 fold over isotype | 8.08 fold over isotype | 
13 | antibody 356 (antibody, V domains shown) VH: QVQLVQSGAEVKKPGASVKVSCKASGYTFTSYGISWVRQAPGQGLEWMGWISAYHGNTNYAQKLQGRVTMTTDTSTSTAYMELRSLRSDDTAVYYCARVGLWWLGHADAFDIWGQGTMVTVSS VL: DIQMTQSPSSLSASVGDRVTITCRASQGIRNDLGWYQQKPGKAPKRLIYAASSLQSGVPSRFSGSGSGTEFTLTISSLQPEDFATYYCLQHNSYPLTFGGGTKVEIK | 90.8 fold over isotype | 60.4 fold over isotype | 
14 | antibody 357 (antibody, V domains shown) VH: QVQLVQSGAEVKKPGSSVKVSCKASGGTFSSYAISWVRQAPGQGLEWMGRIIPILGIANYAQKFQGRVTITADKSTSTAYMELSSLRSEDTAVYYCARGPIAVAGIGPWFDPWGQGTLVTVSS VL: QSVLTQPPSVSAAPGQKVTISCSGSSSNIGNNYVSWYQQLPGTAPKLLIYDNNKRPSGIPDRFSGSKSGTSATLGITGLQTGDEADYYCGTWDSSLSAVVFGGGTKLTVL | 5.37 fold over isotype | 28 fold over isotype | 
15 | antibody 358 (antibody, V domains shown) VH: QVQLVESGGGVVQPGRSLRLSCAASGFNLNSYAMHWVRQASGKGLEWVSLMSYDGSIKYYADSVKGRFTVSGDNSRNTLFLQMNSLRPDDSALYYCVRGGVSGPNSFDLWGQGTTVTVSS VL: DVVMTQSPLSLPVTLGQPASISCRSSQSLVYSDGSTYVNWFQQRPGQSPRRLIYKVSNRDSGVPDRFSGSGSGTDFALKISRVEAEDVGVYYCMQGTHWPVTFGQGTKVEIK | 8.74 fold over isotype | 38.4 fold over isotype | 
16 | antibody 451 (antibody, V domains shown) VH: EVQLVESGGGLVQPGGSLRLSCAASGFTFSTYWMSWVRQAPGKGLEWVANIKQDGSEKYYVDSVKGRFTISRDNAKNSLYLQMNSLRAEDTAVYYCARLGGSSWYFDYWGQGTLVTVSS VL: not shown |  |  | median fluorescence fold over isotype control [5]: 6.29 fold over isotype; median fluorescence fold over isotype control [6]: 29.9 fold over isotype
17 | antibody 453 (antibody, V domains shown) VH: QVQLVESGGGVVQPGRSLRLSCAASGFTFSSYAMYWVRQAPGKGLEWVAVISYDGSNKYYADSVKGRFTISRDNSKNTLYLQMNSLRAEDTAVYYCARDRPHYYGSGRKILNLYGMDVWGQGTTVTVSS VL: DIQLTQSPSFLSASVGDRVTITCRASQGISSYLAWYQQKPGKAPKLLIYAASTLQSGVPSSFSGSGSGTEFTLTISSLQPEDFATYYCQQLNSYPPFTFGPGTKVDIK |  |  | median fluorescence fold over isotype control [5]: 7.41 fold over isotype; median fluorescence fold over isotype control [6]: 39.4 fold over isotype
18 | antibody 455 (antibody, V domains shown) VH: QVQLVQSGAEVKKPGSSVKVSCKASGGTFSSYAISWVRQAPGQGLEWMGRIIPILGIANYAQKFQGRVTITADKSTSTAYMELSSLRSEDTAVYYCARDSIVVPAAIISGYYYYGMDVWGQGTTVTVSS VL: QSVLTQPPSVSAAPGQKVTISCSGSSSNIGNNYVSWYQQLPGTAPKLLIYDNNKRPSGIPDRFSGSKSGTSATLGITGLQTGDEADYYCGTWDSSLSAGRVFGGGTKLTVL |  |  | median fluorescence fold over isotype control [5]: 8.24 fold over isotype; median fluorescence fold over isotype control [6]: 32.3 fold over isotype
19 | antibody 458 (antibody, V domains shown) VH: QVQLVESGGGVVQPGRSLRLSCAASEFTFATYAMHWVRQAPGKGLEWVALISQDGSNKHYADSVKGRFTISRDNSKNTLYLQMNSLRAEGTAIYYCARESLEAAGPPFDYWGQGTLVTVSS VL: SYELTQPPSVSVSPGQTATIICSGDKLGEKYASWYQQKPGQSPALVIYQDRKRPSGIPERFSGSNSGNTATLTISGTQAMDEADYYCQAWDSSNSVVFGGGTKLTVP |  |  | median fluorescence fold over isotype control [5]: 6.23 fold over isotype; median fluorescence fold over isotype control [6]: 27.4 fold over isotype
20 | antibody 461 (antibody, V domains shown) VH: EVQLVESGGGLVKPGGSLRLSCAASGFTFSSYSMNWVRQAPGKGLEWVSSISSSSSYIYYADSVKGRFTISRDNAKNSLYLQMNSLRAEDTAVYYCASNPAAGQEAYYYYGMDVWGQGTTVTVSS VL: not shown |  |  | median fluorescence fold over isotype control [5]: 27.8 fold over isotype; median fluorescence fold over isotype control [6]: 6.89 fold over isotype
